Experimental data: patent US20090016988A1

Key:
[1] = molecular target: MPPT2 (proaerolysin with a uPA cleavage site in the activation sequence, an N-terminal AFAI antibody fragment and a His tag) (Aeromonas hydrophila); experiment: cell-based or functional assay
[2] = molecular target: MPPT3 (proaerolysin with a uPA cleavage site in the activation sequence, an AFAI antibody fragment attached by a uPA-cleavable linker, and a His tag) (Aeromonas hydrophila); experiment: cell-based or functional assay

urokinase-type plasminogen activator (uPA) (enzyme)
Hemolytic activity after 60 minutes (horse red blood cells, after uPA digestion) (hemolytic titer (wells showing lysis)) [1]: 4.5
Hemolytic activity after 60 minutes (horse red blood cells, after uPA digestion) (hemolytic titer (wells showing lysis)) [2]: 8
